Patent US20080118919A1

Target: B42 activation domain-EE34 prey fusion protein (yeast, pJG4-5)
Experiment: cell-based or functional assay

With “λ cI-RR34 bait fusion protein (from UniProt P03034 1-237)” the β-glucuronidase reporter activity with MU-gluc substrate, combination 6 relative to combination 5, yeast two-hybrid (fold higher than combination 5) was 10.
